According to publication PMC4335687 (Growth factors (Chur, Switzerland), 2014):

Target: EphA2 ligand-binding domain, untagged (UniProt P29317)
Assay: SEC

Chain of EphA2 ligand-binding domain, untagged (P29317 24-206): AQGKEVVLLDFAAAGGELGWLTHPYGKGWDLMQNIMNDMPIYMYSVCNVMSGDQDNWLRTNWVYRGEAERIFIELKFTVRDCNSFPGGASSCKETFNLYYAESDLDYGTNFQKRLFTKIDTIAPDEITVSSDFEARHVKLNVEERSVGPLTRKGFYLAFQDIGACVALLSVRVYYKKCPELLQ

B1: D2 scFv-6xHis (monomeric anti-EphA2 single-chain antibody) (scFv, V domains shown)
VH: EVQLLESGGGLVQPGGSLRLSCAASGFTFSRYWMHWVRQAPGKGLEWVSSISPYDGETNYADSVKGRFTISRDNSKNTLYLQMNSLRAEDTAVYYCARISEWYNWAVDVFDYWGQGTLVTVSS
VL: EIVLTQSPGTLSLSPGERATLSCRASQSVSSSNLAWYQQKPGQAPRLLIYGASSRATGVPDRFSGSGSGTDFTLTISRLEPEDFAVYYCQQSSSYPWTFGQGTKVEIK
stoichiometry N: 1
